Measured values from publication PMC12529874.

How the values were obtained:
[1] = molecular target: H2O2-oxidized SOD1(C6A) (Cys111 sulfonylated) (human); experiment: not stated; Zn2+-bound SOD1(WT, C6A) before and after oxidation with H2O2; Figure S7, method not given
[2] = molecular target: apo-SOD1(C6A) (human); experiment: native MS; mass spectra of apo-SOD1(C6A) under native conditions, before and after treatment with H2O2; spectra normalized to the 11+ charge state of the dimer
[3] = molecular target: apo-SOD1(C6A) (human); experiment: SEC-MALS; gel filtration of 20 μM apo protein in MN buffer (100 mM MOPS, 50 mM NaCl, pH 7.0), before or after treatment with 10 mM H2O2, monitored at 280 nm, masses by MALS
[4] = molecular target: apo-SOD1(C6A) (human); experiment: not stated; Zn2+-bound SOD1(WT, C6A) before and after oxidation with H2O2; Figure S7, method not given

Substance	stoichiometry N [1]	stoichiometry N [2]	stoichiometry N [3]	stoichiometry N [4]
H2O2-oxidized SOD1(C6A) (Cys111 sulfonylated) (enzyme)	2	–	–	–
apo-SOD1(C6A) (enzyme)	–	2	2	2
